One block for each compound: values may come before it. Bridge positions count the residues as written; N and C are the ends. Square brackets hold non-standard residues; d marks the D form. Ends that are not written are not given here. Glu‑DTPA‑Gd = N-terminal Glu-DTPA-Gd chelate (gadolinium DTPA complex on glutamic acid); bb‑DTPA gadolinium tetramer diacid = not defined here; AEEA = NCCOCCOCC(=O)O
Tests used:
[1] = biological target: T1, human collagen type I (Homo sapiens, UniProt P02452+P08123); assay: Dried collagen assay (DCA), percent bound to dried human collagen; format: binding
T1 construct: Acid soluble human collagen extracted from placenta; purchased Sigma C7774; host or cells: human placenta (tissue extract)
T1 sequence (P02452 162-1218 limits assumed): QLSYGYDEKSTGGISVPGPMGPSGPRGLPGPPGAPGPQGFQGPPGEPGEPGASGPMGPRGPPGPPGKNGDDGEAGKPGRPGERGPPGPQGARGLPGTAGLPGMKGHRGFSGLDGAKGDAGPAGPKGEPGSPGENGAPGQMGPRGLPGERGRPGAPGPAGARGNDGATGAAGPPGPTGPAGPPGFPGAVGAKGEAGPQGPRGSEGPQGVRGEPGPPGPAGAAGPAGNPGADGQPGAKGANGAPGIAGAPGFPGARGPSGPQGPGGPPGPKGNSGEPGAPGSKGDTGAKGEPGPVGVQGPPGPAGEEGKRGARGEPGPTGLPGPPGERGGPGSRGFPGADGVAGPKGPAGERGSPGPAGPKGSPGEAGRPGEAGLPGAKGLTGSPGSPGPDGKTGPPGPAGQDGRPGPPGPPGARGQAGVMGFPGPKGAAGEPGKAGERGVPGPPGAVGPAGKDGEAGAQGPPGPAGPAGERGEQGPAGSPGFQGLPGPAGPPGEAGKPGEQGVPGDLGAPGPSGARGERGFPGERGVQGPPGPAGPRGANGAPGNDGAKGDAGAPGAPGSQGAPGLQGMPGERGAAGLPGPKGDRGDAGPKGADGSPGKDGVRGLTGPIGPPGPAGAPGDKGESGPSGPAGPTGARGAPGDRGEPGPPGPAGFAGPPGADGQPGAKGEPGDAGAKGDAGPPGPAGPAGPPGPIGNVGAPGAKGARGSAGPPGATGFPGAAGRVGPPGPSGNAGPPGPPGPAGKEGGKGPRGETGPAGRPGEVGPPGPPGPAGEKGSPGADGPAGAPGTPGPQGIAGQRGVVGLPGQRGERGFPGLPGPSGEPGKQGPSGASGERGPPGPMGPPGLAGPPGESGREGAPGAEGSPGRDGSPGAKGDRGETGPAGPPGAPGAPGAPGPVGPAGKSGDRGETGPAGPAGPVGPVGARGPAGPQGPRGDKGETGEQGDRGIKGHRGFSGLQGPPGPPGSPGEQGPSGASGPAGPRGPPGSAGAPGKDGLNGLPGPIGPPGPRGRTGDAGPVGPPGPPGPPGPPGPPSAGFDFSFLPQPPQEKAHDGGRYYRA
T1 sequence (P08123 80-1119 limits assumed): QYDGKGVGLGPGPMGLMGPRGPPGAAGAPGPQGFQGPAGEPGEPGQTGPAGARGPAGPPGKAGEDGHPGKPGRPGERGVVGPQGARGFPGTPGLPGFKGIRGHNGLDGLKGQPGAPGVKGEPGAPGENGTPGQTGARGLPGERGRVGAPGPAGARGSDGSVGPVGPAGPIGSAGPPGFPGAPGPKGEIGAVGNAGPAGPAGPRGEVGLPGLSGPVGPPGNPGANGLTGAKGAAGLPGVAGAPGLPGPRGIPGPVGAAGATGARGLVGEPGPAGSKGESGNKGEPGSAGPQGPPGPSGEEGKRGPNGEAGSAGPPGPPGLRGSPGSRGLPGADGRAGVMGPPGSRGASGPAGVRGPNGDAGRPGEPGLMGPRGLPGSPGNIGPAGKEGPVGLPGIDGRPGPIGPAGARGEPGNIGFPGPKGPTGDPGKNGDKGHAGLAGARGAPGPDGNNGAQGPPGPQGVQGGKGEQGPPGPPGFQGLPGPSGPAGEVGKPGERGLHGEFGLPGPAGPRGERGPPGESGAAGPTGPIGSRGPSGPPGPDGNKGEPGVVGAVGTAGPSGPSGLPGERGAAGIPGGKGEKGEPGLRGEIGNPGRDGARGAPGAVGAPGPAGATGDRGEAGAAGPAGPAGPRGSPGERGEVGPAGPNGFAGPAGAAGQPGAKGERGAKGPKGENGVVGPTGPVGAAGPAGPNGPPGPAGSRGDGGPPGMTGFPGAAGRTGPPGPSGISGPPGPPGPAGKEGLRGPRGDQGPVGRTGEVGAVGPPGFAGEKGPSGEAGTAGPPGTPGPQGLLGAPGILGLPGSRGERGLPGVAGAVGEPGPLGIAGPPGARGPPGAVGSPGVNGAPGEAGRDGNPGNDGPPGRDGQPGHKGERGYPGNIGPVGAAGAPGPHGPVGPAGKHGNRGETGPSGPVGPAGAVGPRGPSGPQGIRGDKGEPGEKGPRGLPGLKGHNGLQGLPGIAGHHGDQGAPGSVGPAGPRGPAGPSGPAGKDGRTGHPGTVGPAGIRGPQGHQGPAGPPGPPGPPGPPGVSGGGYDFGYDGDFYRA

[2] = biological target: T2, rat collagen type I (Rattus norvegicus, UniProt P02454+P02466); assay: Dried collagen assay (DCA), percent bound to dried rat collagen; format: binding
T2 construct: Rat collagen (acid soluble, type I, rat tail); purchased Upstate USA, Inc 08-115; host or cells: rat tail (tissue extract)
T2 sequence (P02454 152-1207 limits assumed): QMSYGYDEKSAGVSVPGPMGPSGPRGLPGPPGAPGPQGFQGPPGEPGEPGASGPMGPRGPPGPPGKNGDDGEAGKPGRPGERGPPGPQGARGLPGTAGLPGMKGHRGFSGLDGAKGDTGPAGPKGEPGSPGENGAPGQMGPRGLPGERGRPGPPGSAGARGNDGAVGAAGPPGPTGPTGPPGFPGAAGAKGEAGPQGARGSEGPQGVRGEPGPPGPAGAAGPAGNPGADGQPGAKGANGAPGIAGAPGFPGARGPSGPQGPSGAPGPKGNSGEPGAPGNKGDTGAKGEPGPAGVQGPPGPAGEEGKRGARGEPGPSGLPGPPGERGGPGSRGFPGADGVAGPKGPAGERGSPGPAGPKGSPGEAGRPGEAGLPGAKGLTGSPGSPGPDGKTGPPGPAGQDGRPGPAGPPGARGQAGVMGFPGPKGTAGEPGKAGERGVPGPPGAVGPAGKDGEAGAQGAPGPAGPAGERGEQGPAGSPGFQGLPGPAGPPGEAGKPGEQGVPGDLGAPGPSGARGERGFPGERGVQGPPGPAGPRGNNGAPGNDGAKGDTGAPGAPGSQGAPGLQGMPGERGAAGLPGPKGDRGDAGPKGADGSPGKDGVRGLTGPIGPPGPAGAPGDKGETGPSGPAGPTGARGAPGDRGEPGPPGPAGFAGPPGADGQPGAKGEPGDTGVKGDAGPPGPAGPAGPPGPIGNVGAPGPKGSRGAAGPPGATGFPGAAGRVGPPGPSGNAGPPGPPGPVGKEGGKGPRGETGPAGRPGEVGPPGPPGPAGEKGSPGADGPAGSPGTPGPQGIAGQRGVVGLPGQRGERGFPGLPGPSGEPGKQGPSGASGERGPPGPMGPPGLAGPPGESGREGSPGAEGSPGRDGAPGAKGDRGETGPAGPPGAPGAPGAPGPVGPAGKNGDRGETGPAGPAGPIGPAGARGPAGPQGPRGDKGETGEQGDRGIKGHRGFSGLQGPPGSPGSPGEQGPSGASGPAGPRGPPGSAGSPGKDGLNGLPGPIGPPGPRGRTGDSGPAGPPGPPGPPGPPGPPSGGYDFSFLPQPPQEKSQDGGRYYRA
T2 sequence (P02466 86-1125 limits assumed): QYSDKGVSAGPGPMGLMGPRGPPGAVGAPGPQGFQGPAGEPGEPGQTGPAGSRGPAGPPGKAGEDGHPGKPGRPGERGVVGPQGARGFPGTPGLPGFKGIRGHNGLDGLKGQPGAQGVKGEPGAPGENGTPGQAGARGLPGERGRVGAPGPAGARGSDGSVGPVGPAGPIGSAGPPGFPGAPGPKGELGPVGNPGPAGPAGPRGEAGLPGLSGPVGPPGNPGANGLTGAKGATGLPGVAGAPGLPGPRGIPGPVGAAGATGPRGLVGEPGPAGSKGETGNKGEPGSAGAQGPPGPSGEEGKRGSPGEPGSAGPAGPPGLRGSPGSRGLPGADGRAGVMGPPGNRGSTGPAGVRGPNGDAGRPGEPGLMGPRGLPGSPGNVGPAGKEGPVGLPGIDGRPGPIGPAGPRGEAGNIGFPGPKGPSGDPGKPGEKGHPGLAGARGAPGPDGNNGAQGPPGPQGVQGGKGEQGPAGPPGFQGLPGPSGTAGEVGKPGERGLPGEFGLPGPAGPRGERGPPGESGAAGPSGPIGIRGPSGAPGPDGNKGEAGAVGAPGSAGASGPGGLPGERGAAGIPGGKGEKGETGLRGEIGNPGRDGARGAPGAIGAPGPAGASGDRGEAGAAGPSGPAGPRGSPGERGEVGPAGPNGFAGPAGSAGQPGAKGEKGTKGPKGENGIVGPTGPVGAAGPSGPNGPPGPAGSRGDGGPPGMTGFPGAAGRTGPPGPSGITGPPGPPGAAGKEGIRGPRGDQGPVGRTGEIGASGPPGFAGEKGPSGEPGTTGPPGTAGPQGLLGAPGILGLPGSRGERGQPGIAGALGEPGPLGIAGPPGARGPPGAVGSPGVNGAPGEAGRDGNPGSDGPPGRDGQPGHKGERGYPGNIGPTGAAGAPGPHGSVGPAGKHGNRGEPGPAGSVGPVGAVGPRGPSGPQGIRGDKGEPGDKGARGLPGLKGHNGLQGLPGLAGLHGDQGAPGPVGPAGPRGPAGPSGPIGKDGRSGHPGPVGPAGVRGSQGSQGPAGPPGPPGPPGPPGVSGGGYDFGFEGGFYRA

[3] = system: perfused Langendorff rat heart; assay: Equilibrium binding to perfused Langendorff rat heart
Protocol: (§1) After deep anesthesia with pentobarbital (80 mg/kg ip), the chest cavity of a male Sprague Dawley rat (300 g) was opened, retracted and the heart was removed immediately and placed in an ice-cold normal Krebs-Henseleit (K-H) solution (NaCl, 118 mM; KCl, 4.7 mM; CaCl2, 2.5 mM; MgSO4, 1.2 mM; KH2PO4, 1.2 mM; NaHCO3, 25 mM; glucose, 5.5 mM). A K-H buffer filled 20 Gauge needle was inserted into the apex of the heart penetrating into the bottom of the chamber. This was attached to a pressure transducer used to record and monitor heart function. Perfusion pressure (˜60 mmHg) was monitored using a second transducer. The heart was perfused at a constant flow rate of 10-12 mL/min with 37° C. Krebs-Henseleit buffer saturated with a mixture of 95% O2 and 5% CO2 gas. The heart was paced at 300 beats/min.
Two peptide test articles, a high collagen binding peptide (SEQ ID NO: 144) and a low collagen binding peptide (SEQ ID NO: 173), are compared to GdDTPA. The appropriate test article was added to the K-H buffer solution to a total concentration of either 3 or 30 μM. Also added to the K-H buffer was a radiotracer analog of each peptide or GdDTPA. For the peptides, the radiotracer was an aliquot of the appropriate 1-125 labeled peptide derivative (see Example 5 for protocol). For GdDTPA, the tracer added was Tc-99m labeled DTPA. The amount of radioactivity added to the buffer solution was 1-5 μCi.
The heart was perfused for a period of 10 minutes and the perfusion solution was recycled through the heart. The total volume of K-H buffer used was 50-60 mL. After 10 min, the heart was removed from the apparatus and any connective tissue was removed. The heart was opened, fluid in the chambers drained, and the interior blotted dry with filter paper. The heart was then weighed and the radioactivity in the heart measured with a Packard Cobra 5003 Gamma Scintillation counter. An aliquot of the K-H buffer was also weighed and counted. Studies were performed at least in duplicate.
The dual peptide gadolinium tetramer (Compound ID 803) was compared to GdDTPA. Compound ID 803 and GdDTPA were added to the K-H buffer solution to a total concentration of 3 μM. Also added to the K-H buffer was a radiotracer analog of Compound ID 803 or GdDTPA. For Compound ID 803, the radiotracer was an aliquot of the In-111 labeled compound. For GdDTPA, the tracer added was Tc-99m labeled DTPA. The amount of radioactivity added to the buffer solution was 1-5 μCi.

[4] = system: perfused Langendorff rat heart; assay: Washout kinetics from perfused Langendorff rat heart; conditions: perfusion with buffer for 10 minutes
Protocol: as §1
A Langendorff rat heart preparation was perfused with K-H buffer at a rate of 10-12 mL/min. A one mL solution containing SEQ ID NO: 144 (300 μM), radiolabeled (I-125) SEQ ID NO: 144 (1-6 μCi), GdDTPA (300 μM), and radiolabeled (Tc-99m) DTPA (5-8 μCi) was infused into the heart at a rate of 1 mL/min. After the infusion was finished, the heart was either removed or perfusion was allowed to continue for an additional 10 minutes and then the heart was removed. The perfusion buffer was not recirculated through the heart. After removal of any connective tissue, the heart was opened, fluid in the chambers drained, and the interior blotted dry with filter paper. The heart was then weighed and the radioactivity in the heart measured with a Packard Cobra 5003 Gamma Scintillation counter. […] An aliquot of the K-H buffer was also weighed and counted. Concentration estimates were decay corrected. Studies were performed at least in duplicate.
A Langendorff rat heart preparation was perfused with K-H buffer at a rate of 10-12 mL/min. […] The heart was then weighed and the radioactivity in the heart measured with a Packard Cobra 5003 Gamma Scintillation counter. […] An aliquot of the K-H buffer was also weighed and counted. […]

[5] = Table 2, TN-8 peptides, 5 μM peptide, PBS pH 7.4
[6] = Table 4, TN-10 peptides, 5 μM peptide, PBS pH 7.4
[7] = Table 13, TN-10 peptides with -G- linker, alanine scanning
[8] = Table 14, TN-6 peptides, D-amino acid scanning
[9] = Table 15, TN-10 peptides with -G- linker, D-amino acid scanning

Compound: 2 (WGWCEWAQNNCWNY) [compound 2]
Dried Human Collagen Binding [1, 5]: 14%

Compound: 3 (PWWCHEMPSMCFGF) [compound 3]
Dried Human Collagen Binding [1, 5]: 2%

Compound: 36 (SWSCGGDHNAWKCQYS) [compound 36]
Dried Human Collagen Binding [1, 6]: 7%

Compound: 37 (LWNCHGTDANWKCVLN) [compound 37]
Dried Human Collagen Binding [1, 6]: 7%

Compound: 38 (GWSCHGDAADWPCQWS) [compound 38]
Dried Human Collagen Binding [1, 6]: 6%

Compound: 39 (GWQCSGDASVWNCDWI) [compound 39]
Dried Human Collagen Binding [1, 6]: 6%

Compound: 65 (KWECVHTKGEWYCETK) [compound 65]
Dried Human Collagen Binding [1, 6]: 7%

Compound: 112 (AKACSVHDEFGCLIS; disulfide 4-12 (inferred); not fully specified (C-terminus)) [compound 112]
Dried Human Collagen Binding ([1]; Table 8, TN-9 peptides): 9%

Compound: 113 (FSECVWVNAYQCEYF; disulfide 4-12 (inferred); not fully specified (C-terminus)) [compound 113]
Dried Human Collagen Binding ([1]; Table 8, TN-9 peptides): 3%

Compound: 130 (WWACQKGRHDWEKCRWL; disulfide 4-14 (inferred); not fully specified (C-terminus)) [compound 130]
Dried Human Collagen Binding ([1]; Table 11, TN-11 peptides): 32%

Compound: 137 (YHACYQAGCWAW; disulfide 4-9 (inferred); not fully specified (C-terminus)) [compound 137]
% Collagen Binding Dried Rat ([2]; Table 12, TN-6 peptides, alanine scanning): 7%

Compound: 142 (QWTCSADEYTWHCNYE; disulfide 4-13 (inferred); not fully specified (C-terminus)) [compound 142]
% Collagen Binding Dried Rat [2, 7]: 6%

Compound: 147 (QWTCSGDEYTAHCNYE; disulfide 4-13 (inferred); not fully specified (C-terminus)) [compound 147]
% Collagen Binding Dried Human [1, 7]: 5%

Compound: 159 (YHACYQAGCWIW) [compound 159]
% Collagen Binding Dried Human [1, 8]: 7%

Compound: CC(C)C[C@H](NC(=O)[C@@H]1CSSC[C@H](NC(=O)[C@H](Cc2c[nH]cn2)NC(=O)[C@H](Cc2c[nH]c3ccccc23)NC(=O)[C@H](CCC(N)=O)NC(=O)CNC(=O)CC[C@H](NC(=O)[C@H](CNC(=O)[C@@H](CN(CCN(CC(=O)O)CC(=O)O)CC(=O)O)N(CC(=O)O)CC(=O)O)NC(=O)[C@@H](CN(CCN(CC(=O)O)CC(=O)O)CC(=O)O)N(CC(=O)O)CC(=O)O)C(=O)NCCCCCCNC(=O)[C@H](CCC(=O)NCC(=O)N[C@@H](CCC(N)=O)C(=O)N[C@@H](Cc2c[nH]c3ccccc23)C(=O)N[C@@H](Cc2c[nH]cn2)C(=O)N[C@H]2CSSC[C@@H](C(=O)N[C@@H](CC(C)C)C(=O)N[C@@H](Cc3ccc(O)cc3)C(=O)NCC(N)=O)NC(=O)[C@H](Cc3ccc(O)cc3)NC(=O)[C@H](Cc3c[nH]cn3)NC(=O)[C@H](Cc3c[nH]cn3)NC(=O)[C@@H]3CCCN3C(=O)[C@H](Cc3ccccc3)NC(=O)[C@H](CO)NC(=O)[C@H]([C@@H](C)O)NC(=O)[C@H]([C@@H](C)O)NC2=O)NC(=O)[C@H](CNC(=O)[C@@H](CN(CCN(CC(=O)O)CC(=O)O)CC(=O)O)N(CC(=O)O)CC(=O)O)NC(=O)[C@@H](CN(CCN(CC(=O)O)CC(=O)O)CC(=O)O)N(CC(=O)O)CC(=O)O)C(=O)N[C@@H]([C@@H](C)O)C(=O)N[C@@H]([C@@H](C)O)C(=O)N[C@@H](CO)C(=O)N[C@@H](Cc2ccccc2)C(=O)N2CCC[C@H]2C(=O)N[C@@H](Cc2c[nH]cn2)C(=O)N[C@@H](Cc2c[nH]cn2)C(=O)N[C@@H](Cc2ccc(O)cc2)C(=O)N1)C(=O)N[C@@H](Cc1ccc(O)cc1)C(=O)NCC(N)=O [Comp ID 803]
Heart ([3]; 10 min recirculating perfusion, 3 μM in K-H buffer, radiotracer counting): 9.1 ± 1.8 nmol/g
Heart:Buffer ([3]; 10 min recirculating perfusion, buffer 3.0 μM): 3.02 ± 0.62

Continued, in another order:

% Collagen Binding Dried Rat [2, 8]: 53%
Compound: 163 (YHACYQAGCWIW) [compound 163]

% Collagen Binding Dried Human [1, 9]: 2%
% Collagen Binding Dried Rat [2, 9]: 4%
Compound: 165 (QWTCSGDEYTWHCNYE) [compound 165]

% Collagen Binding Dried Human [1, 9]: 2%
% Collagen Binding Dried Rat [2, 9]: 3%
Compound: 166 (QWTCSGDEYTWHCNYE) [compound 166]

% Collagen Binding Dried Human [1, 9]: 4%
Compound: 167 (QWTCSGDEYTWHCNYE) [compound 167]

% Collagen Binding Dried Human [1, 9]: 3%
% Collagen Binding Dried Rat [2, 9]: 2%
Compound: 168 (QWTCSGDEYTWHCNYE) [compound 168]

% Collagen Binding Dried Rat [2, 9]: 4%
Compound: 169 (QWTCSGDEYTWHCNYE) [compound 169]

% Collagen Binding Dried Rat [2, 9]: 6%
Compound: 171 (QWTCSGDEYTWHCNYE) [compound 171]

% Collagen Binding Dried Human [1, 9]: 5%
% Collagen Binding Dried Rat [2, 9]: 4%
Compound: 173 (QWTCSGDEYTWHCNYE) [compound 173]

% Collagen Binding Dried Human [1, 9]: 5%
Compound: 174 (QWTCSGDEYTWHCNYE) [compound 174]

% Collagen Binding Dried Human [1, 9]: 2%
% Collagen Binding Dried Rat [2, 9]: 2%
Compound: 175 (QWTCSGDEYTWHCNYE) [compound 175]

% Collagen Binding Dried Human [1, 9]: 2%
% Collagen Binding Dried Rat [2, 9]: 2%
Compound: 176 (QWTCSGDEYTWHCNYE) [compound 176]

% Binding Collagen I Rat ([2]; Table 17, chelate conjugates): 5%
Compound: 190 ({Glu‑DTPA‑Gd-AEEA}-GQWTCSGDEYTWHCNY[dE]-NH2; disulfide 5-14 (inferred); also: gadolinium complex of Glu-DTPA) [compound 190]

heart uptake relative to GdDTPA ([3]; 10 minutes): about 7 times
Compound: Compound ID 803: dual peptide gadolinium tetramer; bb-DTPA tetramer diacid coupled to N-terminus of SEQ ID NO. 264 peptide ({bb‑DTPA gadolinium tetramer diacid}-GQWHCTTSFPHHYCLYG; disulfide 5-14 (inferred); not fully specified (C-terminus); printed as G-Q-W-H-C-T-T-S-F-P-H-H-Y-C-L-Y-G; reading uncertain; also: dual peptide tetramer: two peptide chains on one diacid, Gd chelated) [dual peptide gadolinium tetramer; 264 peptide]
amount remaining in heart at 10 minutes after infusion relative to 0 minutes post infusion [4]: 54%
